Each block holds one molecule with its values, some of them ahead of it. Where no end group is shown, it is not given here.
Key:
[1] = target: VP16PAH2 (amino acids 251-404 of mSin3A encoding the PAH2 domain fused to the VP16 activation domain) (UniProt Q60520); experiment: directed yeast two-hybrid assay (LexA-SID with VP16PAH2, beta-galactosidase)
[2] = target: T1, PAH2 domain of mSin3A (Mus musculus, UniProt Q60520); experiment: Directed two-hybrid assay (LexA-SID fusions with VP16PAH2, quantitative β-galactosidase); type: cell-based; conditions: for affinity for PAH2 relative to wild-type SID 8-20: fold higher; for interaction with PAH2 (relative β-galactosidase activity): LexA fusion with VP16PAH2 in S. cerevisiae strain L40
T1 construct: expressed in transfected cells; host or cells: S. cerevisiae strain L40
T1 sequence (Q60520 251-404): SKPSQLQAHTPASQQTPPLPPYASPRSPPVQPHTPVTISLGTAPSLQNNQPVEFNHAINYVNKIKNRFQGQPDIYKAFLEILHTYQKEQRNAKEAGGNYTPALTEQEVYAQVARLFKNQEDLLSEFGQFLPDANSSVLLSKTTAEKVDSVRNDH
From the text: Cloning and Interaction Assays—Fusions to the LexA DNA binding domain were made either by polymerase chain reaction amplifying SID 1-57 and SID 1-27 using pSPMad1 or pSPMad1 (L12P/A16P) (Ayer et al., Cell 80:767-776 (1995)) as template or by inserting a double-stranded oligonucleotide cassette encoding the various SID constructs between the EcoRI and BamH1 sites of pBTM116. Hollenberg et al., Mol. Cell. Biol. 15:3813-3822 (1995). Each construct was verified by sequencing. The different LexA fusion constructs and VP16PAH2 (Ayer et al., Cell 80:767-776 (1995)) were introduced into the S. cerevisiae strain L40 by lithium acetate transformation. Ausubel et al. eds., Current Protocols in Molecular Biology, John Wiley & Sons, Inc., New York (1995). Quantitative β-galactosidase assays were performed from three independent colonies in triplicate from liquid cultures. Ausubel et al. eds., Current Protocols in Molecular Biology, John Wiley & Sons, Inc., New York (1995). For each measurement the standard deviation was less than 10%.
We have used a directed two-hybrid assay to measure the relative affinity of the SID and various SID mutants for PAH2. Briefly, SID molecules based on the sequence of human Mad1 were fused to the DNA binding domain of bacterial LexA, and the PAH2 domain of mSin3A was fused to the transcriptional activation domain of VP16. Following introduction into the S. cerevisiae strain L40, relative affinity was measured by quantitative analysis of the β-galactosidase activity generated from an integrated LexA-dependent LacZ reporter gene.

[3] = Circular dichroism (CD) spectroscopy of SID peptides in TFE; type: physicochemical; conditions: for ability to adopt α-helical structure in TFE: increasing TFE concentrations (1, 20, 50%); for α-helical content: 50 μM peptide, 25° C.
Method: Circular Dichroism (CD) Spectroscopy—CD samples contained 50 μM of peptide, 1×phosphate-buffered saline, and the percentage of trifluoroethanol (TFE, Sigma) indicated in FIG. 4. CD spectra were collected on an Aviv 62DS spectrophotometer from 280 to 195 nm at 25° C. using a cell with a 0.1-cm pathlength. The reported spectra are the average of 15 consecutive runs. The observed ellipticity was converted to mean residue molar ellipticity [Θ] (deg cm^2 dmol^−1) using the relationship [Θ]=Θ/(Cr 1) where Θ is the observed ellipticity, 1 is the pathlength, and Cr is the mean residue molar concentration. Fractional helicities were calculated as described using values for [Θ]^0222 and [Θ]^100222, corresponding to 0% and 100% helical content at 222 nm, of −2000 and −28,400 deg cm^2 dmol^−1, respectively. Wu et al., Biochemistry 20:5766-570 (1981).
To test directly if the SID could adopt an α-helical structure, we measured the helical content of wild-type SID and mutant SID peptides using circular dichroism (CD) spectroscopy. […] Therefore, spectra for the wild-type and mutant SID peptides were measured in the solvent TFE, which is commonly used to stabilize α-helical conformation in peptides that have an inherent helical propensity. Sonnichsen et al., Biochemistry 31 :8790-8798 (1992), Jasanoff and Fersht, Biochemistry 33:2129-2135 (1994). […] At increasing TFE concentrations, the wild-type peptide adopts an α-helical structure as indicated by the strong negative peaks at 208 and 222 nm. In 20% TFE the SID is approximately 40% α-helical. This percentage increases to approximately 60% in 50% TFE.

- affinity for PAH2 relative to wild-type SID 8-20 ([2]; yeast strain L40): two-fold
Molecule: Q10A/E14A/D17A: minimal SID 8-20 containing all three alanine mutations, LexA fusion (NIAMLLAAAAYLE; also: LexA fusion; UniProt Q05195 8-20, looked up, variant Q10A E14A D17A)

- interaction with PAH2 (relative β-galactosidase activity) [2]: fails to interact with PAH2
- interaction with PAH2 (relative β-galactosidase activity) ([2]; listed as L12P/A16P): failed to interact with PAH2
Molecule: GGGMNIQMPLEAPDYLE [L12P/A16P SID, same mutation also tested as LexA fusion in two-hybrid]
- ability to adopt α-helical structure in TFE [3]: cannot adopt an α-helical structure
- ability to adopt α-helical structure in TFE ([3]; listed as L12P/A16P): remained unchanged with increasing concentrations of TFE
- ability to adopt α-helical structure in TFE ([3]; listed as double proline mutant SID peptide): incapable of α-helix formation

- affinity for PAH2 relative to wild-type SID 8-20 ([2]; yeast strain L40): approximately 2 fold
Molecule: Q10A: minimal SID 8-20 with single mutation Q10A, LexA fusion (NIAMLLEAADYLE; also: LexA fusion; UniProt Q05195 8-20, looked up, variant Q10A)

- interaction with PAH2 (relative β-galactosidase activity) [2]: unable to interact with PAH2
- interaction with PAH2 (relative β-galactosidase activity) ([2]; listed as L19D): fails to interact with PAH2
- interaction with PAH2 (relative β-galactosidase activity) ([2]; listed as Leu-19): severely impaired binding
Molecule: GGGMNIQMLLEAADYDE [L19D SID, same mutation also tested as LexA-SID 8-20 fusion]
- CD spectrum / helicity compared with wild-type SID ([3]; 50% TFE): nearly identical to that collected for the wild-type SID
- reduction of helicity relative to wild-type ([3]; 50% TFE): ~5%
- ability to adopt α-helical structure in TFE [3]: retain helical structure
- ability to adopt α-helical structure in TFE ([3]; listed as L19D): retains helical structure

- reduction of binding to PAH2 relative to wild-type SID 8-20 ([2]; yeast strain L40, fold reduced): 4 fold
Molecule: QLOR: minimal thirteen amino acid SID (8-20) with mutation at Gln-10, LexA fusion (NIRMLLEAADYLE; also: LexA fusion; UniProt Q05195 8-20, looked up, variant Q10R)

- affinity for PAH2 relative to wild-type SID 8-20 ([2]; yeast strain L40): approximately 2 fold
Molecule: E14A: minimal SID 8-20 with single mutation E14A, LexA fusion (NIQMLLAAADYLE; also: LexA fusion; UniProt Q05195 8-20, looked up, variant E14A)

- interaction with PAH2 (relative β-galactosidase activity) [2]: necessary and sufficient for interaction
B1: NIQMLLEAADYLE (protein)
chain: MKALTARQQEVFDLIRDHISQTGMPPTRAEIAQRLGFRSPNAAEEHLKALARKGVIEIVSGASRGIRLLQEEEEGLPLVGRVAAGEPLLAQQHIEGHYQVDPSLFKPNADFLLRVSGMSMKDIGIMDGDLLAVHKTQDVRNGQVVVARIDDEVTVKRLKKQGNKVELLPENSEFKPIVVDLRQQSFTIEGLAVGVIRNGDWLNIQMLLEAADYLE

- interaction with PAH2 (relative β-galactosidase activity) [2]: sufficient for interaction
B2: SID 1-57: LexA DNA binding domain fused to amino acids 1-57 of Mad1 (protein)
chain: MKALTARQQEVFDLIRDHISQTGMPPTRAEIAQRLGFRSPNAAEEHLKALARKGVIEIVSGASRGIRLLQEEEEGLPLVGRVAAGEPLLAQQHIEGHYQVDPSLFKPNADFLLRVSGMSMKDIGIMDGDLLAVHKTQDVRNGQVVVARIDDEVTVKRLKKQGNKVELLPENSEFKPIVVDLRQQSFTIEGLAVGVIRNGDWLMAAAVRMNIQMLLEAADYLERREREAEHGYASMLPYNNKDRDALKRRNKSKKNNSSS

Further lines, the molecule ahead of its results:

Molecule: LexA fused to SID 8-20 Q10A/E14A/D17A (from UniProt P0A7C2 1-202)
- fold better binding than wild-type SID [1]: 2 fold

Molecule: LexA fused to SID 8-20 Q10R (from UniProt P0A7C2 1-202)
- fold reduction of binding against wild-type SID 8-20 (relative beta-galactosidase activity) [1]: 4 fold

Molecule: LexA fused to SID 8-20 D17A (from UniProt P0A7C2 1-202)
- fold higher affinity than wild-type SID 8-20 (relative beta-galactosidase activity) [1]: 2 fold

Molecule: Tyr-18: minimal SID 8-20 with Tyr-18 mutated to aspartic acid, LexA fusion (NIQMLLEAADDLE; also: LexA fusion; UniProt Q05195 8-20, looked up, variant Y18D)
- interaction with PAH2 (relative β-galactosidase activity) [2]: severely impaired binding

Molecule: LexA fused to SID 8-20 E14A (from UniProt P0A7C2 1-202)
- fold higher affinity than wild-type SID 8-20 (relative beta-galactosidase activity) [1]: 2 fold

Molecule: LexA fused to SID 8-20 Q10A (from UniProt P0A7C2 1-202)
- fold higher affinity than wild-type SID 8-20 (relative beta-galactosidase activity) [1]: 2 fold

Molecule: GGGMNIQMLLEAADYLE [wild-type SID peptide]
- α-helical content ([3]; 20% TFE): approximately 40%
- α-helical content ([3]; 50% TFE): approximately 60%
- secondary structure ([3]; aqueous solution containing 1% TFE): lacks secondary structure
- ability to adopt α-helical structure in TFE [3]: able to adopt an α-helical conformation

Molecule: D17A: minimal SID 8-20 with single mutation D17A, LexA fusion (NIQMLLEAAAYLE; also: LexA fusion; UniProt Q05195 8-20, looked up, variant D17A)
- affinity for PAH2 relative to wild-type SID 8-20 ([2]; yeast strain L40): approximately 2 fold

Molecule: GGGMNIQMLLEDADYLE [A15D SID, same mutation also tested as LexA-SID 8-20 fusion]
- CD spectrum / helicity compared with wild-type SID ([3]; 50% TFE): slightly less helical than the wild-type SID
- reduction of helicity relative to wild-type ([3]; 50% TFE): approximately 40%
- ability to adopt α-helical structure in TFE [3]: retain helical structure
- ability to adopt α-helical structure in TFE ([3]; listed as A15E): retains helical structure
- interaction with PAH2 (relative β-galactosidase activity) [2]: unable to interact with PAH2
- interaction with PAH2 (relative β-galactosidase activity) ([2]; listed as A15E): fails to interact with PAH2
- interaction with PAH2 (relative β-galactosidase activity) ([2]; listed as Ala-15): severely impaired binding
